In patent US20210388096A1:

Molecular target: human Fn14 on cells (NFkB/HEK293 reporter cells, A375 cells) (human) (UniProt Q9NP84)
Assay: cell-based or functional assay

Chain of human Fn14 on cells (NFkB/HEK293 reporter cells, A375 cells) (human) (Q9NP84 28-129): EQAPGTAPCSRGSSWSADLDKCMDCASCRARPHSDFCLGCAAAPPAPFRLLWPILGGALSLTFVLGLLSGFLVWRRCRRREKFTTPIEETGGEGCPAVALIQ

IC50 (ng/mL), inhibition of Tweak-induced NFkB activation (luciferase reporter, NFkB/HEK293 cells), geometric mean of three trials: 115 ng/mL
B1: mouse anti-human Fn14 antibody CRCBT-06-002 (antibody, from another filing, V domains shown)
VH: EVKLQQSGGGLVQPGGSMKLSCVASGFTFSYYWMNWVRQSPEQGLEWIAEIRLQSNDYPTHYAESVKGRFTISRDDSKNSVYLQMNNLRPEDTGIYYCACRYADYFDHWGQGTTLTVSS
VL: DTVLTQSPASLVVSLGQRATISCRASQSVSTSDYSYIHWYQQKPGQPPKFLIKYASNRDSGVPARFSGSGSGTDFTLNIHPVEEDDTAIYYCQHSWEIPPTFGAGTKLELQR
